In patent US20210236649A1 (ICONIC THERAPEUTICS, published 2021):

B1: Human Factor VIIa (human plasma FVIIa) (enzyme, UniProt P08709 61-466, looked up)
chain: ANAFLEELRPGSLERECKEEQCSFEEAREIFKDAERTKLFWISYSDGDQCASSPCQNGGSCKDQLQSYICFCLPAFEGRNCETHKDDQLICVNENGGCEQYCSDHTGTKRSCRCHEGYSLLADGVSCTPTVEYPCGKIPILEKRNASKPQGRIVGGKVCPKGECPWQVLLLVNGAQLCGGTLINTIWVVSAAHCFDKIKNWRNLIAVLGEHDLSEHDGDEQSRRVAQVIIPSTYVPGTTNHDIALLRLHQPVVLTDHVVPLCLPERTFSERTLAFVRFSLVSGWGQLLDRGATALELMVLNVPRLMTQDCLQQSRKVGDSPNITEYMFCAGYSDGSKDSCKGDSGGPHATHYRGTWYLTGIVSWGQGCATVGHFGVYTRVSQYIEWLQKLMRSEPRPGVLLRAPFP
notes: also called hFVIIa; Human FVIIa
B2: Lipidated rabbit tissue factor (receptor, UniProt P24055 33-292, looked up)
chain: ADTTGRAYNLTWKSTNFKTILEWEPKSIDHVYTVQISTRLENWKSKCFLTAETECDLTDEVVKDVGQTYMARVLSYPARNGNTTGFPEEPPFRNSPEFTPYLDTNLGQPTIQSFEQVGTKLNVTVQDARTLVRRNGTFLSLRAVFGKDLNYTLYYWRASSTGKKTATTNTNEFLIDVDKGENYCFSVQAVIPSRKRKQRSPESLTECTSREQGRAREMFFIIGAVVVVALLIIVLSVTVYKCRKARAGPSGKESSPLNIA
notes: Amine-coupled as a proteoliposome to flow cell 2 of the Biacore chip; Also used to start thrombin generation in rabbit plasma; also called rTF; rabbit TF

Experiments:
[1] = molecular target: B2; test: SPR (Biacore)
Protocol: (§1) The GE procedure for proteoliposome immobilization (amine coupling) protocol was used to coat PS/PC/rTF on flow cell 2, and PS/PC/hTF on flow cell 3. Flow cells were equilibrated with running buffer (15 mM Hepes, 150 mM NaCl, 5 mM CaCl2, 25 mM Arginine, 0.01% Tween 80, pH7.4) at a flow rate of 5 μL/min. Kinetic analyses were performed at 37° C. by flowing consecutively increasing concentrations of each analyte […] in the running buffer (15 mM. HEPES, 150 mM NaCl, 5 mM CaCl2, 25 mM Arginine, 0.01% Tween 80, pH 7.4) over the sensor chip for 5 min followed by a 10 min dissociation period at a flow rate of 30 μL/min in parallel.
(§2) Analyte binding to the lipidated TF was determined by subtracting the RU values noted in the reference flow cell 1 from flow cell 2 and 3. Binding of analytes to the TFs was monitored in real time to obtain on (ka) and off (kd) rates. The equilibrium dissociation constant (KD) was calculated from the observed ka and kd.

[2] = molecular target: B1; test: SPR (Biacore 3000), lipidated rabbit TF on chip
Protocol: as §1, §2
(§3) Based on the saturation concentration of the analyte, binding analysis was performed using saturating analyte concentrations of 0-500 nM for rabbit TF and 0-50 nM for human TF. Chi squared (χ²) analysis was carried out between the actual sensorgram and the calculated on- and off-rates to determine the accuracy of the analysis.

[3] = molecular target: B1; test: SPR (Biacore 3000), lipidated rabbit TF amine-coupled, analyte 0-500 nM, 37 C
Protocol: as §1, §2, §3

| fold lower affinity than to lipidated hTF [1] [fold] | Kd [2] [nM] | Ka [3] [M⁻¹] | Kd [3] [nM] | koff [3] [s⁻¹] | kon [3] [M⁻¹ s⁻¹] | Binder |
| --- | --- | --- | --- | --- | --- | --- |
| ~10 |  |  |  |  |  | B1 |
|  | 39.5 | 2.5e+07 | 40 | 0.0014 | 34000 | B2 |
